Reference: patent US20080038748

System: human recombinant LAP β1 (R&D), not treated with protease
Sequence (chain, as listed by the source): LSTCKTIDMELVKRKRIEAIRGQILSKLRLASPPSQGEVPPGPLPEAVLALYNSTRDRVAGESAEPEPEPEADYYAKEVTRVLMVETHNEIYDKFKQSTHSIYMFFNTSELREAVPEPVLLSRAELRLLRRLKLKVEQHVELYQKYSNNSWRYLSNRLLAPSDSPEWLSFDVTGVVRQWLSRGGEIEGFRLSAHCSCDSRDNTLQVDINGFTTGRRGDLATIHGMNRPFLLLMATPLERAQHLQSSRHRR

human plasma kallikrein (Sigma), sequence (chain, as listed by the source): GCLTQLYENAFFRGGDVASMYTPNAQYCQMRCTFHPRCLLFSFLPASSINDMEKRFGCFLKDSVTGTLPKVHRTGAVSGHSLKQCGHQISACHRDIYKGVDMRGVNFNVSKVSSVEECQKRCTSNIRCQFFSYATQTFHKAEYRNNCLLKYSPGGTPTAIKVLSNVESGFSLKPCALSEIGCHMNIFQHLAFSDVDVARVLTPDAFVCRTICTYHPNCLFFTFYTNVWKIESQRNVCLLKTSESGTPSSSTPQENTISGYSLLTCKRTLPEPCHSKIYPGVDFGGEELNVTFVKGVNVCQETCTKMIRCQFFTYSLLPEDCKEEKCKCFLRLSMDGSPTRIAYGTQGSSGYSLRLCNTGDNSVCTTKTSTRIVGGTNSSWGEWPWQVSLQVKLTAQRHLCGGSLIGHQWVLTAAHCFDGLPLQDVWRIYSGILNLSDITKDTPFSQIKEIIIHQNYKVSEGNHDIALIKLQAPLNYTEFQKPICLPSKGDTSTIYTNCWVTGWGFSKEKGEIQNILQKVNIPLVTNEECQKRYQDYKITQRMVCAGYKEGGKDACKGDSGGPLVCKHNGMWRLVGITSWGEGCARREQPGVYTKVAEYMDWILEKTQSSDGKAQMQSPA
human recombinant matrix metalloprotease 3 (MMP3) (Alexis), sequence (chain, as listed by the source): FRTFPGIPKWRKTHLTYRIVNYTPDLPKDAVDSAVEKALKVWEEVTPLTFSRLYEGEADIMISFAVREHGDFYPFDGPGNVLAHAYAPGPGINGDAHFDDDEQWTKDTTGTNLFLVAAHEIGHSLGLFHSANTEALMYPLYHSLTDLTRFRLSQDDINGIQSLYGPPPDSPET

## human plasma kallikrein (Sigma)
  limited degradation; cleavage site by N-terminal sequencing of the fragments: plasma kallikrein specifically cleaves between 58 Arg and 59 Leu thereof

## human recombinant matrix metalloprotease 3 (MMP3) (Alexis)
  limited degradation; cleavage site by N-terminal sequencing of the fragments: MMP3 specifically cleaves between 79 Ala and 80 Leu thereof
